From patent US20170233490A1 (Hoffmann-La Roche, published 2017) come the findings set out here.

The term Kd denotes the free concentration of one partner at which half of the binding sites on the other are occupied at equilibrium, for simple one-to-one binding. A low value points to a tighter complex. In general, koff refers to a measure of how fast the partners let go of each other. Read a low koff as slow dissociation. A word on the kon: it is a measure of how fast the partners come together. High values mean fast association, low ones slow association.

For experiment [1], the target named is T1, human HER2 (full length, on cells) (human, UniProt P04626 23-1255).
T1 construct: HEK293 cells transfected with full length HER2 (IHC); MCF-7 cells (co-immunoprecipitation)
The experiment can be described thus: IHC (Ventana Benchmark XT) on formalin-fixed, paraffin-embedded HEK293 cells transiently transfected with full length HER2. How it is done:
All selected clones were tested for reactivity and specificity in IHC. […] After an additional fixation in formalin overnight the Agarose blocks were embedded in paraffin. Untransfected HEK293 cells were used as negative controls and treated accordingly to the transfected cells. After paraffin embedding 3 μm thin sections were prepared using a microtome. The sections were mounted on glass microscopy slides and dried for 2 h. All further steps of the immunohistochemical staining procedure were carried out using a Ventana Benchmark XT. The slides were dewaxed and antigen retrieval was performed by applying heat for 1 hour. For antigen retrieval the Ventana buffer CC1 was used. The antibodies were used at a concentration of 1 μg/ml. For the detection of bound antibody the Ventana UltraView detection kit was used.

The next experiment has as its target T2, TtSlyD-FKBP-Her3.
T2 construct: N-terminal Met present or not; also called thermo SlyD-Her3; ttSlyD-Her3
T2 chain: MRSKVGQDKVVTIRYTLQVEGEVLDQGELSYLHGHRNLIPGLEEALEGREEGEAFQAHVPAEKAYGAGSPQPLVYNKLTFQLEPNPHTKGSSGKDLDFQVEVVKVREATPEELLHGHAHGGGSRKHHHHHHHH
The experiment can be described thus: SPR Biacore 3000, antibody captured, 25 C.

Experiment [2] has as its target T3, HER3 ECD-HRG complex (human, UniProt P21860 20-643).
T3 construct: HER3 ECD preincubated with a 3- to 6-fold molar excess of Heregulin ('open' conformation); biotinylated Her3-ECD in the ribosome display; also called HER3-ECD/HRG1β
Kind of experiment: SPR Biacore T100; reference: HER3-ECD without Heregulin. How it is done:
(§1) A CM5 series sensor was mounted into the system and was normalized in HBS-ET buffer (10 mM HEPES pH 7.4, 150 mM NaCl, 3 mM EDTA, 0.005% w/v Tween 20) according to the manufacturer's instructions. The sample buffer was the system buffer supplemented with 1 mg/ml CMD (Carboxymethyldextran, Sigma #86524). The system operated at 25° C. 6500 RU RAM-Fcγ (relative units of Fcγ-fragment RamIgG, GE Healthcare) were immobilized according to the manufacturer's instructions using EDC/NHS chemistry on all four flow cells. The sensor was deactivated using 1M ethanolamine.
For orientation: Surface plasmon resonance follows binding to a sensor surface in real time, without labels.

In experiment [3] the target is T4, human Heregulin fragment (HRG) (human).
T4 construct: 44 kDa homodimeric protein, expressed in FreeStyle 293-F cells; also called Heregulin beta; HRG1β
T4 chain: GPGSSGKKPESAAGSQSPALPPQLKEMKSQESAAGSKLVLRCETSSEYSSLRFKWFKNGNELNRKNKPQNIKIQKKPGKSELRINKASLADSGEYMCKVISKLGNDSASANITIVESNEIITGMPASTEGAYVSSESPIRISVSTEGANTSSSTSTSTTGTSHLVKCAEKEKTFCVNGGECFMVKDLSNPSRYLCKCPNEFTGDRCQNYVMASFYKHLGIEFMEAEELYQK
Kind of experiment: SPR Biacore T100, antibody captured, 25 C. How it is done:
as §1
(§2) The binding activity of the respective antibody against the analytes was kinetically tested. Antibodies were captured at 35 nM concentration by a 1 min injection at 5 μl/min. The flow rate was set to 100 μl/min.
(§3) Analytes in solution were injected at different concentration steps of 0 nM, 1.1 nM, 3.7 nM, 11.1 nM, 33.1 nM and 90 nM for 3.5 min. The dissociation was monitored for 15 min. Where possible, kinetic signatures were evaluated according to a Langmuir fit.

Another experiment has as its target T5, HER4 ECD-HRG complex (human, UniProt Q15303 26-651).
T5 construct: HER4 ECD preincubated with a 5-fold molar excess of Heregulin
T5 sequence 1: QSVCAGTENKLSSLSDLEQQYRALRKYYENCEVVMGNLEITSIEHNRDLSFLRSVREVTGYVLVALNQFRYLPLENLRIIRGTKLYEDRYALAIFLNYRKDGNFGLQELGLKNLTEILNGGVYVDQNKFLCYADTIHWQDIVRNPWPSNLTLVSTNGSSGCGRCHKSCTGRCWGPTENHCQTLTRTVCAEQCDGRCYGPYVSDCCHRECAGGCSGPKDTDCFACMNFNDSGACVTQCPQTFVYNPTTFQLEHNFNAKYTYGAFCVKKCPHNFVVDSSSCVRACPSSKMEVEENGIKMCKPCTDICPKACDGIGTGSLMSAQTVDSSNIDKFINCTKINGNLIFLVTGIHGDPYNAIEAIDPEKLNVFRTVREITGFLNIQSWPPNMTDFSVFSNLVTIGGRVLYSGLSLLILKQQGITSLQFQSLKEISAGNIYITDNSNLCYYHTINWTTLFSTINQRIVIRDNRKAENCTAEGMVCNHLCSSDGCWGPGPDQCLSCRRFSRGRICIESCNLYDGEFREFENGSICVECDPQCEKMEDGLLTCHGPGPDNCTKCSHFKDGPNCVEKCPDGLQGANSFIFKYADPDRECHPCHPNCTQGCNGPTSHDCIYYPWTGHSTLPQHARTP
T5 sequence 2: T4 chain
The experiment can be described thus: SPR Biacore T100, antibody captured, 25 C. As for the experimental part: as §1, §2, §3

In experiment [4] the target is T3, HER3 ECD-HRG complex. The experiment can be described thus: SPR Biacore T100, antibody captured, 25 C. As for the experimental part:
as §1, §2, §3

The target of experiment [5] is T6, human HER2 Extracellular Domain (ECD) (human, UniProt P04626 23-652).
T6 construct: human recombinant, 69.6 kDa; also called Her2 ECD; HER2_ECD
The experiment can be described thus: SPR Biacore T100, antibody captured, 25 C. As for the experimental part: as §1, §2, §3

The target in experiment [6] is T7, human HER3 Extracellular Domain (ECD) (human, UniProt P21860 20-643).
T7 construct: human recombinant, 68 kDa; 'closed' conformation without ligand; also called Her3 ECD; Her-3 ECD
The experiment can be described thus: SPR Biacore T100, antibody captured, 25 C. As for the experimental part: as §1, §2, §3

For experiment [7], the target named is T8, human HER4 Extracellular Domain (ECD) (human, UniProt Q15303 26-651).
T8 construct: also called Her4 ECD; HER4-ECD
T8 sequence: T5 sequence 1
Kind of experiment: SPR Biacore T100, antibody captured, 25 C. As for the experimental part: as §1, §2, §3

“And” between values parts separate entries of the source, which are not always exact repeats. Equal values may be shown once.

B1: anti-HER3/HER4 antibody M-05-74 (antibody, V domains shown)
VH: QVQLQQSGAELAKPGASVKMSCKTSGYTLTDYWIHWVKQRPGQGLEWIGYINPYTGYTESNQKFKDKATLTADKSSNTAYIQLSSLTSEDSAVYYCARPYYYGDYWGQGTTLTVSS
VL: QIVLTQSPAIMSASPGERVTITCSASSSVSYMHWFQQKPGTSPKLLIYSTSNLASGVPARFSGSGSGTSYSLTISRMEAEDAATYYCQQRSSYPFTFGSGTKLEIK
notes: murine monoclonal IgG from hybridoma (supernatant or purified), bivalent; also called M-074; M-5-74
Take B1: the binding result in experiment [1] was “no binding (tested: 1 µg/ml)”; in experiment [3], “no binding (tested: up to 90 nM)”; in [5], “no binding (tested: up to 90 nM)”. Moreover, the dissociation constant Kd in the experiment with TtSlyD-FKBP-Her3 was 27 nM; with HER4 ECD-HRG complex it was 5.2 nM and 5 nM; with HER3 ECD-HRG complex [4] it was 4.2 nM and 4 nM; in [6], 2.2 nM and 2 nM; in experiment [7], 150 nM. Moreover, the “ratio MR (+Heregulin)/MR (-Heregulin)” value with HER3 ECD-HRG complex [2] is 3 fold. Besides, the “ratio ka (Her3-ECD-HRG)/ka (Her3-ECD)” value with HER3 ECD-HRG complex [2] is 4.85 fold. In addition, the “BL (Binding Late)” value with HER4 ECD-HRG complex came to 349 RU; in the experiment with HER3 ECD-HRG complex [4], 160 RU; in experiment [6], 70 RU; in experiment [7], 27 RU. Moreover, the “MR (Molar Ratio)” value in the experiment with HER4 ECD-HRG complex was found to be 0.6; with HER3 ECD-HRG complex [4], 0.6; in [6] it was 0.2; in [7], 0.1. Besides, the koff turned out to be 0.00083 s⁻¹ in the experiment with HER4 ECD-HRG complex, 0.00027 s⁻¹ with HER3 ECD-HRG complex [4] and 2.8e-05 s⁻¹ in experiment [6]. For the same molecule, the figures for the on-rate (kon) (with HER4 ECD-HRG complex; in the experiment with HER3 ECD-HRG complex [4]; in experiment [6]) were 160000 M⁻¹ s⁻¹, 63000 M⁻¹ s⁻¹ and 13000 M⁻¹ s⁻¹, respectively.
